Source: patent US20200299408A1 (Genentech, published 2020)
Several values for one entry are separate records, joined by “and”; a condition that tells them apart may be missing. Equal entries are not always repeated.

Assays:
[1] = target: T1, cyCD3εγ (cynomolgus monkey); assay: monovalent binding affinity, method not stated on the sheet
T1 chain 1: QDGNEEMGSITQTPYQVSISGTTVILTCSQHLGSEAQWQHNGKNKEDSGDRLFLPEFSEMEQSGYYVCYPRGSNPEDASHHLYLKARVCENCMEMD
T1 chain 2: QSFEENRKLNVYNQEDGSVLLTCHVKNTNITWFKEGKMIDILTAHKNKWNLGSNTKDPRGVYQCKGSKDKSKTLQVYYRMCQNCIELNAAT

[2] = target: T2, human CD3 on T cells (human, UniProt P07766 22-207); assay: FACS on Jurkat cells (CD3), anti-huIgG-PE; number printed beside the curve without a quantity name, taken as EC50
T2 construct: whole, on cells; On cells CD3ε stands in the CD3/TCR complex; also called CD3 antigen; CD3ε
Procedure: (§1) Binding affinities for the each of the CD3/CD20 TDBs were tested by Biacore or FACS analysis, as described above for the anti-CD3 antibodies. Briefly, for Biacore binding assays, human CD3εγ was immobilized on Biacore Series S CM5 sensor chip using the amine coupling kit from Biacore and CD3/CD20 TDBs or Fab variants thereof were in the flow through. For FACS binding assays, either Bjab cells (for B cell antigens) or Jurkat cells (for CD3 antigen) were incubated with various concentrations of TDB antibodies at 4° C. for 30 minutes, then cells were washed and incubated with 2nd antibody (anti-huIgG-PE; BD Bioscience) for another 15 minutes, before cells were washed again and ready for FACS analysis.

[3] = target: T2, human CD3 on T cells; assay: as above; remark: listed apart in the source
Procedure: as §1

[4] = target: T3, single chain human CD3ε-26mer-CD3γ (CD3εγ) (human); assay: Biacore, monovalent KD of the CD3 arm; CD3 antigen not named on the sheet (reactivity hu, cyno)
T3 construct: also called human CD3εγ
T3 chain: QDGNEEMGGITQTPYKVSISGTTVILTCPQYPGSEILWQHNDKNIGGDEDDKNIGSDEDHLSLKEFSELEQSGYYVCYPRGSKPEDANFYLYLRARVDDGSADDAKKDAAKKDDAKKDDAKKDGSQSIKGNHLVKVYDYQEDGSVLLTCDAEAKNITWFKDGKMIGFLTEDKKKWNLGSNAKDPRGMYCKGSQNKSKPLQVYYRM

[5] = target: T2, human CD3 on T cells; assay: Scatchard; table headed 'Bivalent Binding Affinity', though its footnote reads 'monovalent binding Kd measured by scatchard'; cells not named
[6] = target: T2, human CD3 on T cells; assay: FACS on Jurkat cells (CD3), anti-huIgG-PE; number printed beside the curve without a quantity name, taken as EC50; remark: listed apart in the source
Procedure: as §1

[7] = target: T4, Commercial hCD3eg; assay: mu IgG against commercial hCD3eg; method not stated on the sheet
T4 chain 1: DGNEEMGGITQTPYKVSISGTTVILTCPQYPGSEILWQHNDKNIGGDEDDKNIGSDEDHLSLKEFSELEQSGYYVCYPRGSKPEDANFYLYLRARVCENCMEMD
T4 chain 2: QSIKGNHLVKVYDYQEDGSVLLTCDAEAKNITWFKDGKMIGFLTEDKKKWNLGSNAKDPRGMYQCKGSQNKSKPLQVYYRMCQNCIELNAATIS

[8] = target: T5, commercial CD3ε (Creative Biomart, Catalog Number CD3E-2194H) (human, UniProt P07766); assay: binding affinity on commercial CD3ε (Creative Biomart CD3E-2194H); method not stated in the legend
T5 construct: commercial recombinant protein; also called commercial CD3E

[9] = target: T2, human CD3 on T cells; assay: FACS on Jurkat cells (CD3); EC50 table for the curves of FIGS. 21A-21B; source CHO (N297G)
Procedure: as §1

[10] = target: T3, single chain human CD3ε-26mer-CD3γ …; assay: Biacore, human CD3εγ on chip, TDB in flow through
Procedure: as §1

B1: SP34v52 Fab (Fab, V domains shown)
VH: EVQLVESGGGLVQPGGSLRLSCAASGFTFNTYAMNWVRQAPGKGLEWVARIRSKYNNYATYYADSVKDRFTISRDDSKNTLYLQMNSLRAEDTAVYYCVRHGNFGNSYVSWFAYWGQGTLVTVSS
VL: EAVVTQEPSLTVSPGGTVTLTCRSSTGAVTTSNYANWVQQKPGQAPRGLIGGTNKRAPWTPARFSGSLLGGKAALTLSGAQPEDEAEYYCALWYSNLWVFGGGTKLTVL
Kd [1]: 12 nM

B2: KH CD20 2H7v16/SP34v52 (bispecific antibody, V domains shown)
VH 1: EVQLVESGGGLVQPGGSLRLSCAASGYTFTSYNMHWVRQAPGKGLEWVGAIYPGNGDTSYNQKFKGRFTISVDKSKNTLYLQMNSLRAEDTAVYYCARVVYYSNSYWYFDVWGQGTLVTVSS
VL 1: DIQMTQSPSSLSASVGDRVTITCRASSSVSYMHWYQQKPGKAPKPLIYAPSNLASGVPSRFSGSGSGTDFTLTISSLQPEDFATYYCQQWSFNPPTFGQGTKVEIK
VH 2: EVQLVESGGGLVQPGGSLRLSCAASGFTFNTYAMNWVRQAPGKGLEWVARIRSKYNNYATYYADSVKDRFTISRDDSKNTLYLQMNSLRAEDTAVYYCVRHGNFGNSYVSWFAYWGQGTLVTVSS
VL 2: EAVVTQEPSLTVSPGGTVTLTCRSSTGAVTTSNYANWVQQKPGQAPRGLIGGTNKRAPWTPARFSGSLLGGKAALTLSGAQPEDEAEYYCALWYSNLWVFGGGTKLTVL
modifications: Knob-into-hole full-length IgG; constant regions are not in the letters.
notes: full-length knob-into-hole human IgG1 TDB; also called CD3/CD20 TDB 2H7v16/SP34v52
EC50 [2]: 1.11 µg/mL | EC50 [3]: 0.6 µg/mL and 4 nM

B3: murine SP34 (antibody, V domains shown)
VH: EVQLVESGGGLVQPKGSLKLSCAASGFTFNTYAMNWVRQAPGKGLEWVARIRSKYNNYATYYADSVKDRFTISRDDSQSILYLQMNNLKTEDTAMYYCVRHGNFGNSYVSWFAYWGQGTLVTVSS
VL: QAVVTQESALTTSPGETVTLTCRSSTGAVTTSNYANWVQEKPDHLFTGLIGGTNKRAPGVPARFSGSLIGDKAALTITGAQTEDEAIYFCALWYSNLWVFGGGTKLTVL
notes: KD is printed as monovalent
Kd [4]: 1.9 nM

B4: K&H 2H7v16/hu UCHT1v1 (bispecific antibody, V domains shown)
VH 1: EVQLVESGGGLVQPGGSLRLSCAASGYTFTSYNMHWVRQAPGKGLEWVGAIYPGNGDTSYNQKFKGRFTISVDKSKNTLYLQMNSLRAEDTAVYYCARVVYYSNSYWYFDVWGQGTLVTVSS
VL 1: DIQMTQSPSSLSASVGDRVTITCRASSSVSYMHWYQQKPGKAPKPLIYAPSNLASGVPSRFSGSGSGTDFTLTISSLQPEDFATYYCQQWSFNPPTFGQGTKVEIK
VH 2: EVQLVESGGGLVQPGGSLRLSCAASGYSFTGYTMNWVRQAPGKGLEWVALINPYKGVTTYADSVKGRFTISVDKSKNTAYLQMNSLRAEDTAVYYCARSGYYGDSDWYFDVWGQGTLVTVSS
VL 2: DIQMTQSPSSLSASVGDRVTITCRASQDIRNYLNWYQQKPGKAPKLLIYYTSRLESGVPSRFSGSGSGTDYTLTISSLQPEDFATYYCQQGNTLPWTFGQGTKVEIK
modifications: Knob-into-hole full-length IgG; constant regions are not in the letters.
notes: also called CD3/CD20 TDB 2H7v16/UCHT1v1
Kd [5]: 300 nM

B5: CD20KH (2H7v16/21A9) (bispecific antibody, V domains shown)
VH 1: EVQLVESGGGLVQPGGSLRLSCAASGYTFTSYNMHWVRQAPGKGLEWVGAIYPGNGDTSYNQKFKGRFTISVDKSKNTLYLQMNSLRAEDTAVYYCARVVYYSNSYWYFDVWGQGTLVTVSS
VL 1: DIQMTQSPSSLSASVGDRVTITCRASSSVSYMHWYQQKPGKAPKPLIYAPSNLASGVPSRFSGSGSGTDFTLTISSLQPEDFATYYCQQWSFNPPTFGQGTKVEIK
VH 2: EVQLVESGGGVVQPGGSLKLSCAASGFTFSGSAMHWVRQASEKGLEWVGRIRSRANSYATAYAASVKDRFTISRDNSKNTAYLQMNSLKTEDTAVYYCIRDTMVRGIDYWGQGTLVTVSS
VL 2: not shown
modifications: Knob-into-hole full-length IgG; constant regions are not in the letters.
notes: also called CD3/CD20 TDB 2H7v16/21A9
EC50 [6]: 1.6 µg/mL and 11 nM

B6: 72H6 (antibody, IgG2a, V domains shown)
VH: EVQLQQSGPELVKPGASVKISCKASGYSFTSYYIHWVKQRPGQGLEWIGWIFPGSDNTKYNEKFKGKATLTADTSSSTAYMQLSSLTSEDSAVYFCARNGNYAMDYWGQGTSVTVSS
VL: EIVLSQSPSSLAVSAGEKVTMSCKSSQSLLNSRTRKNYLAWYQQKPGQSPKLLIYWASTRESGVPDRFTGSGSGTDFTLTISSVQAEDLAVYYCKQSYTLRTFGGGTKLEIK
notes: mouse hybridoma clone; also called 72H6 (xCD3)
Kd [7]: 2.5 nM

B7: murine 38E4 (antibody, V domains shown)
VH: QVQLQQSGPELVKPGASVTISCTASGFTFTSYYIHWVRQRPGQGLEWIGWIYPENDNTKYNEKFKDKATLTADTSSSTAYMQLSSLTSEDSAVYYCARDGYSRYYFDYWGQGTTLTVSS
VL: DIVMTQSPSFLAVSAGEKVTMSCKSSQSLLNSRTRKNYLAWYQQRPGQSPKLLIYWTSTRKSGVPDRFTGSGSGTDFTLTISSVQAEDLAIYYCKQSFILRTFGGGTKLEIK
notes: KD is printed as monovalent
Kd [4]: 0.75 nM

B8: humanized 40G5c variant: VH1 graft + V67A + I69L + R71A / K4 graft (antibody, V domains shown)
VH: EVQLVQSGAEVKKPGASVKVSCKASGYTFTNYYIHWVRQAPGQGLEWIGWIYPGDGNTKYNEKFKGRATLTADTSTSTAYLELSSLRSEDTAVYYCARDSYSNYYFDYWGQGTLVTVSS
VL: DIVMTQSPDSLAVSLGERATINCKSSQSLLNSRTRKNYLAWYQQKPGQPPKLLIYWASTRESGVPDRFSGSGSGTDFTLTISSLQAEDVAVYYCTQSFILRTFGQGTKVEIK
Kd [8]: 24 nM

B9: KH CD20 2H7v16/38E4v1 (bispecific antibody)
anti-CD20 arm heavy chain: EVQLVESGGGLVQPGGSLRLSCAASGYTFTSYNMHWVRQAPGKGLEWVGAIYPGNGDTSYNQKFKGRFTISVDKSKNTLYLQMNSLRAEDTAVYYCARVVYYSNSYWYFDVWGQGTLVTVSS
anti-CD20 arm light chain: DIQMTQSPSSLSASVGDRVTITCRASSSVSYMHWYQQKPGKAPKPLIYAPSNLASGVPSRFSGSGSGTDFTLTISSLQPEDFATYYCQQWSFNPPTFGQGTKVEIK
anti-CD3 arm heavy chain: EVQLVQSGAEVKKPGASVKVSCKASGFTFTSYYIHWVRQAPGQGLEWIGWIYPENDNTKYNEKFKDRVTITADTSTSTAYLELSSLRSEDTAVYYCARDGYSRYYFDYWGQGTLVTVSS
anti-CD3 arm light chain: DIVMTQSPDSLAVSLGERATINCKSSQSLLNSRTRKNYLAWYQQKPGQSPKLLIYWTSTRKSGVPDRFSGSGSGTDFTLTISSLQAEDVAVYYCKQSFILRTFGQGTKVEIK
notes: also called 38E4v1 CHO
EC50 [9]: 0.24 µg/mL and ~1.6 nM | Kd [10]: 1.28 nM and 1.3 nM | koff [10]: 0.00515 s⁻¹ | kon [10]: 4.03e+06 M⁻¹ s⁻¹ | EC50 [3]: 0.243 µg/mL and 1.6 nM

B10: humanized 40G5c variant: VH1 graft + I69L + R71A / K4 graft (antibody, V domains shown)
VH: EVQLVQSGAEVKKPGASVKVSCKASGYTFTNYYIHWVRQAPGQGLEWIGWIYPGDGNTKYNEKFKGRVTLTADTSTSTAYLELSSLRSEDTAVYYCARDSYSNYYFDYWGQGTLVTVSS
VL: DIVMTQSPDSLAVSLGERATINCKSSQSLLNSRTRKNYLAWYQQKPGQPPKLLIYWASTRESGVPDRFSGSGSGTDFTLTISSLQAEDVAVYYCTQSFILRTFGQGTKVEIK
Kd [8]: 36 nM

B11: humanized 40G5c variant: VH1 graft + V67A + R71A / K4 graft (antibody, V domains shown)
VH: EVQLVQSGAEVKKPGASVKVSCKASGYTFTNYYIHWVRQAPGQGLEWIGWIYPGDGNTKYNEKFKGRATITADTSTSTAYLELSSLRSEDTAVYYCARDSYSNYYFDYWGQGTLVTVSS
VL: DIVMTQSPDSLAVSLGERATINCKSSQSLLNSRTRKNYLAWYQQKPGQPPKLLIYWASTRESGVPDRFSGSGSGTDFTLTISSLQAEDVAVYYCTQSFILRTFGQGTKVEIK
Kd [8]: 37 nM

B12: KH CD20 2H7v16/hu38E4c (bispecific antibody)
anti-CD20 arm heavy chain: EVQLVESGGGLVQPGGSLRLSCAASGYTFTSYNMHWVRQAPGKGLEWVGAIYPGNGDTSYNQKFKGRFTISVDKSKNTLYLQMNSLRAEDTAVYYCARVVYYSNSYWYFDVWGQGTLVTVSS
anti-CD20 arm light chain: DIQMTQSPSSLSASVGDRVTITCRASSSVSYMHWYQQKPGKAPKPLIYAPSNLASGVPSRFSGSGSGTDFTLTISSLQPEDFATYYCQQWSFNPPTFGQGTKVEIK
anti-CD3 arm heavy chain: EVQLVQSGAEVKKPGASVKVSCKASGFTFTSYYIHWVRQAPGQGLEWIGWIYPENDNTKYNEKFKDRVTITADTSTSTAYLELSSLRSEDTAVYYCARDSYSNYYFDYWGQGTLVTVSS
anti-CD3 arm light chain: DIVMTQSPDSLAVSLGERATINCKSSQSLLNSRTRKNYLAWYQQKPGQSPKLLIYWTSTRKSGVPDRFSGSGSGTDFTLTISSLQAEDVAVYYCTQSFILRTFGQGTKVEIK
notes: also called CD3/CD20 TDB 2H7v16/38E4c
EC50 [2]: 1.01 µg/mL
